Literature values in patent US8163700B2, “Inhibitors of myelin-associated glycoprotein (MAG) activity for regulating neural growth and regeneration” (Research Foundation of City University of New York, priority 2002, dated 2012).

How the values were obtained:
Nogo = target: T1, Nogo (Homo sapiens, UniProt Q9NQC3, S458P); conditions: described in the art; cited from earlier work
T1 sequence (Q9NQC3 1-1192 S458P): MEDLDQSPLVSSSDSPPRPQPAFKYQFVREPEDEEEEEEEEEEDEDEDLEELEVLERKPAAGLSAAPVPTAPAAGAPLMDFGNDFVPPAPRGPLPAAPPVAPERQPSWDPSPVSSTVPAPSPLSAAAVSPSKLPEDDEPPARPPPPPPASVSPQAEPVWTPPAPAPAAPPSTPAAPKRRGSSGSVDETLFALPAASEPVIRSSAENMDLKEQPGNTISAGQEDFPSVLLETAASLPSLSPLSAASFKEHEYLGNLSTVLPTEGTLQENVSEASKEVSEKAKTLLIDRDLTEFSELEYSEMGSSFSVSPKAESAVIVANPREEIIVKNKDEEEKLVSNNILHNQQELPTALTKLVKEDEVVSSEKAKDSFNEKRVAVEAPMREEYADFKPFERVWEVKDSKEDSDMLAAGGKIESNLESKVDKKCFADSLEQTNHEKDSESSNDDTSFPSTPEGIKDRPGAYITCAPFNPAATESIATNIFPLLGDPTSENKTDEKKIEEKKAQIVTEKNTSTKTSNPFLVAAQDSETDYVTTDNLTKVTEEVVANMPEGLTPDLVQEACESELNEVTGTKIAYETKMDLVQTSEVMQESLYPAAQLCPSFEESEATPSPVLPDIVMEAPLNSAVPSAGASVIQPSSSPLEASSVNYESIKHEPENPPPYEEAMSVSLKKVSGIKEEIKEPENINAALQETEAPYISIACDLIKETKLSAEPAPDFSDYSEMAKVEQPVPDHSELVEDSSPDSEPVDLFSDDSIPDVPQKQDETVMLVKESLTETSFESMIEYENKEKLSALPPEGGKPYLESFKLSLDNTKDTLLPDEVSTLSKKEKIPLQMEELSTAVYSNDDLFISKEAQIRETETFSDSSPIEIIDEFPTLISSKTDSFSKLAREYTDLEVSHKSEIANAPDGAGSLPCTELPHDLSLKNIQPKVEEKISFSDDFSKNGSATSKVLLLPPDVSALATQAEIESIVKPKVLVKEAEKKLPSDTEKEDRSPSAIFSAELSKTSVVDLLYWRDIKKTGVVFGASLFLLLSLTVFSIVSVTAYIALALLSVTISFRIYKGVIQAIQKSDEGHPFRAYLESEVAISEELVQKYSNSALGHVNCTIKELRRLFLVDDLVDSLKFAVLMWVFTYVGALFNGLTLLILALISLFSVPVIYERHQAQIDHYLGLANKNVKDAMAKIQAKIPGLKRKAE

NgR = target: T2, NgR (Homo sapiens, UniProt Q9BZR6); conditions: described in the art; cited from earlier work
T2 sequence (Q9BZR6 27-447): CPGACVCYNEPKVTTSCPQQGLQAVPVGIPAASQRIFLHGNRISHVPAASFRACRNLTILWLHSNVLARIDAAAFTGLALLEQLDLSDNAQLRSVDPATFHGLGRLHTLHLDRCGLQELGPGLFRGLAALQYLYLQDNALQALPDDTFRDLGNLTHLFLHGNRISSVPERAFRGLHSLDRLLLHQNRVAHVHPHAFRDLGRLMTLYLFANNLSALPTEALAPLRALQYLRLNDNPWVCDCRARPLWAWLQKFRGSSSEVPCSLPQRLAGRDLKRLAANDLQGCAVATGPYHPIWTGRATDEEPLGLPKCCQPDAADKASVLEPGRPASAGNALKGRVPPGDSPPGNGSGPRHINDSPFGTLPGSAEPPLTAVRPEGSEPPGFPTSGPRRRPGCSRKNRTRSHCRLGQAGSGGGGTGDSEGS

## Nogo-66 amino acid residues 31-55: prior-art peptide of Nogo-66 residues 31-55 (hNogo-A residues 1085-1109 of SEQ ID NO: 9) (EELVQKYSNSALGHVNCTIKELRRL; listed as Homo sapiens)
Nogo
  inhibition of axonal outgrowth: inhibit axonal outgrowth
NgR
  binding to NgR: can bind to NgR
